In this data set the test system is Bs-CspB-100V80 fusion (ssRNA purification reagent, Isotag) (Bacillus subtilis). The following applies: percent of spiked dsRNA eluted; greater than 4-log dsRNA removal; dsRNA ELISA.

“dsRNA matching the sequence and size of the eGFP ssRNA” came in with a binding of under 4%.

The values are drawn from patent publication US20250066759.
